Results: the supplement of paper PMC10567573

B1: ETS1 (parent)
chain: FSEPSFITESYQTLHPISSEELLS
B2: DYRK1B (parent)
chain: KKVLNHGYDDDNHDYIVRSGERWL

Variants of: B1
Assay: protein stability index of a GFP-peptide fusion (GPS, HEK-293T) (PSI 1-6); higher = more stable
Settings: c terminus: a fixed tail appended
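Further: lentivirally expressed fusions sorted by FACS into six bins by GFP to DsRed ratio, PSI derived from sequencing read proportions per bin multiplied by bin number.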

Protein stability index, by site and new letter:
T8: G 2.05, P 3.5, Q 2.59, L 1.92, Y 2.17, F 1.95, D 3.47
L22: C 1.97, S 2
P16: D 1.81, I 1.6, A 1.68
E20: S 2.11, Q 2.12, V 2.04
L14: M 1.88, P 2.1, N 2.08, T 2.5, I 1.94
S19: E 2.46, K 1.72, L 1.81, M 2.19
I17: F 1.84, H 1.76, T 2.78, Y 2.03, E 2.39, V 2.14
S5: N 2.34, Y 1.8, E 2.35, F 2.26
F1: Y 2.1, M 4, I 4.03
H15: Y 1.51, F 1.95, K 2.33, V 2.49
L23: E 2.44, D 2.47
S10: H 2.06, W 1.5, T 2.15, A 1.74, Q 2.35, R 2.16, E 3
E3: H 2.17, A 2.37
Y11: H 2.25, F 1.73, P 3.21
E21: Y 1.49, F 1.99, W 1.99
T13: N 1.68, Y 1.93
P4: V 1.49, E 3.19, R 2.13, N 2.99
E9: I 2.57, R 2.24, P 1.75, Q 2.02, S 2.25
S2: D 4.15, P 1.95, K 3.34, W 2.1
I7: S 3.55, F 1.68, L 2.19
S18: K 1.49, N 2.04, R 2.19, E 2.18
F6: N 4.57
S24: K 2.49, C 1.5, R 1.86
Q12: A 2.1, P 1.91

Variants of: B2
Assay: as above
Settings: c terminus: a fixed tail appended

Protein stability index of substitutions, site by site:
K1: A 3.11, C 2.38, D 3.62, E 3.24, F 2.41, G 3.5, H 3.39, I 2.28, L 2.48, M 3.09, N 2.95, P 3.43, Q 2.74, R 2.43, S 3.23, T 2.92, V 2.29, W 2.07, Y 2.38
K2: A 3.33, C 1.9, D 4.31, E 3.7, F 2.52, G 3.6, H 3.19, I 2.23, L 2.12, M 2.86, N 3.79, P 3.46, Q 3.32, R 3.13, S 2.97, T 3.53, V 2.86, W 2.12, Y 2.52
V3: A 3.45, C 2.41, D 3.74, E 3.48, F 2.61, G 3.33, H 3.12, I 2.73, K 3.08, L 2.88, M 3.04, N 3.15, P 2.94, Q 3.08, R 2.83, S 3.47, T 3, W 2.05, Y 2.73
L4: A 3.68, C 3.33, D 4.28, E 3.56, F 2.59, G 3.87, H 3.27, I 3.33, K 3.68, M 2.88, N 3.76, P 3.36, Q 4.12, R 3.38, S 3.27, T 3.86, V 2.58, W 3.1, Y 2.99
N5: A 2.88, C 2.84, D 3.41, E 3.46, F 2.7, G 3.42, H 2.89, I 2.82, K 2.97, L 3.01, M 2.8, P 3.39, Q 3.01, R 2.92, S 2.67, T 2.57, V 3.22, W 2.72, Y 2.33
H6: A 2.81, C 2.38, D 3.48, E 3.44, F 2.4, G 3.26, I 3.01, K 3.52, L 2.51, M 2.34, N 3.38, P 3.27, Q 3.32, R 2.91, S 3.22, T 3.12, V 2.84, W 2.01, Y 3.12
G7: A 3.47, C 2.27, D 3.4, E 3.64, F 2.4, H 2.84, I 2.22, K 3.3, L 2.24, M 3.07, N 3.23, P 3.15, Q 3.12, R 3.31, S 3.21, T 3.53, V 2.77, W 2.74, Y 2.93
Y8: A 3.82, C 3.24, D 3.87, E 3.71, F 3.46, G 3.56, H 4.27, I 3.27, K 3.58, L 3.36, M 3.48, N 4.15, P 3.24, Q 3.77, R 4.28, S 3.66, T 3.74, V 3.58, W 2.74
D9: A 2.89, C 2.96, E 3.96, F 2.61, G 2.51, H 2.74, I 2.52, K 2.87, L 2.39, M 2.83, N 2.63, P 3.12, Q 2.94, R 2.74, S 2.34, T 2.75, V 2.67, W 1.53, Y 2.17
D10: A 3.02, C 2.52, E 2.95, F 1.83, G 3.46, H 2.75, I 2.3, K 3.16, L 2.43, M 2.96, N 2.48, P 2.81, Q 2.99, R 2.82, S 2.72, T 3, V 2.44, W 2.04, Y 3.06
D11: A 3.09, C 2.55, E 3.18, F 2.15, G 2.85, H 3.08, I 2.5, K 2.92, L 2.25, M 2.59, N 2.89, P 2.58, Q 2.83, R 2.37, S 3.03, T 2.75, V 2.54, W 2.02, Y 2.48
N12: A 2.7, C 2.67, D 3.4, E 3.36, F 2.35, G 2.81, H 2.65, I 2.47, K 3.05, L 2.3, M 2.29, P 2.78, Q 3.48, R 3.27, S 3.01, T 2.62, V 2.64, W 2.01, Y 2.17
H13: A 3.06, C 2.54, D 3.73, E 4.24, F 1.95, G 3.27, I 2.79, K 3.59, L 2.59, M 2.58, N 3.07, P 3.57, Q 3.68, R 3.77, S 3.42, T 3.35, V 2.96, W 2.44, Y 2.64
D14: A 2.78
